Assay results reported in US20110200622A1 (SAMSUNG ELECTRONICS, published 2011).

B1: polypeptide clone number 55, displayed on phage (peptide, not shown: large carriers)
peptide: PRFEMWHDDK
notes: Tested as a phage clone in phage ELISA
B2: polypeptide clone number 65, displayed on phage (peptide, not shown: large carriers)
peptide: QMDRMFPHVG
notes: as for B1
B3: polypeptide clone number 68, displayed on phage (peptide, not shown: large carriers)
peptide: PIGQRWNRLE
notes: as for B1
B4: polypeptide clone number 69, displayed on phage (peptide, not shown: large carriers)
peptide: RLFEMYPSLE
notes: as for B1
B5: polypeptide clone number 73, displayed on phage (peptide, not shown: large carriers)
peptide: ERTEMFPSAS
notes: as for B1
B6: polypeptide clone number 76, displayed on phage (peptide, not shown: large carriers)
peptide: QRDEMYPHLN
notes: as for B1
B7: polypeptide clone number 78, displayed on phage (peptide, not shown: large carriers)
peptide: PHQEMWQFES
notes: as for B1
B8: polypeptide clone number 82, displayed on phage (peptide, not shown: large carriers)
peptide: MKSAMYHDIR
notes: as for B1
B9: polypeptide clone number 83, displayed on phage (peptide, not shown: large carriers)
peptide: FDKYYRDWFI
notes: as for B1
B10: polypeptide clone number 40, displayed on phage (peptide, not shown: large carriers)
peptide: RMGPFGTTH
notes: as for B1
B11: polypeptide clone number 42, displayed on phage (peptide, not shown: large carriers)
peptide: YRGVWGGYF
notes: as for B1
B12: polypeptide clone number 63, displayed on phage (peptide, not shown: large carriers)
peptide: PRLSMWQNME
notes: as for B1
B13: polypeptide clone number 44, displayed on phage (peptide, not shown: large carriers)
peptide: HDYAFYSAW
notes: as for B1
B14: polypeptide clone number 13, displayed on phage (peptide, not shown: large carriers)
peptide: EDYRFYSVW
notes: as for B1
B15: polypeptide clone number 34, displayed on phage (peptide, not shown: large carriers)
peptide: YGYPWSGT
notes: as for B1
B16: polypeptide clone number 66, displayed on phage (peptide, not shown: large carriers)
peptide: DRFSMWKNLE
notes: as for B1
B17: polypeptide clone number 70, displayed on phage (peptide, not shown: large carriers)
peptide: SRFEMWNDIS
notes: as for B1
B18: polypeptide clone number 50, displayed on phage (peptide, not shown: large carriers)
peptide: QRDQQYKHMY
notes: as for B1
B19: polypeptide clone number 16, displayed on phage (peptide, not shown: large carriers)
peptide: DRYSQYQSPM
notes: as for B1
B20: polypeptide clone number 52, displayed on phage (peptide, not shown: large carriers)
peptide: DFLKMYRDEK
notes: as for B1
B21: polypeptide clone number 56, displayed on phage (peptide, not shown: large carriers)
peptide: MHRPWPWDMF
notes: as for B1

What follows are binders tested against T1, human VEGF (R&D systems, Inc.; catalog #293-VE) (human, UniProt P15692-4 27-191) (assay: phage ELISA on plate-immobilised human VEGF, anti-M13-HRP, OD450).
T1 construct: Bought protein; It was biotinylated for bead panning and coated directly on the plate for the ELISAs; also called human vascular endothelial growth factor; human-derived vascular endothelial growth factor
T1 sequence (P15692 other isoform, or with tags, fused parts or gaps limits assumed): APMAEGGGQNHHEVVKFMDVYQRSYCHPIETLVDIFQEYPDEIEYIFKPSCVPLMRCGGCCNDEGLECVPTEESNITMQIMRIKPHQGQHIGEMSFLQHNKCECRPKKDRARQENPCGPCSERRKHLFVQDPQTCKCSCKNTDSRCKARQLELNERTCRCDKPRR
Experimental: E. coli XL1-Blue was infected with each of the phage clones obtained from the biopanning process, and the cells were cultured at 37° C. for 14 hours to obtain a phage solution. The VEGF was added to a 96-well microtiter plate (Nunc), and maintained at 4° C. for 18 hours to immobilize the VEGF on a surface of the plate. The plate with the immobilized VEGF was blocked with skim milk at room temperature for 1 hour, and 100 μl of the phage solution was added to the plate. Then, the phage and the VEGF were incubated together at room temperature for two hours, and washed using a PBS solution containing 0.1% Tween-20. Subsequently, an anti-M13 antibody (GE Healthcare) specifically reactive to the phage and conjugated with horseradish peroxidase (HRP) was added to the resultant product and incubated with each other at room temperature for 1 hour. Then, the plate was washed twice with a PBS solution containing 0.1% Tween-20. Lastly, 100 μl of trimethylbenzidine (TMB) (SIGMA), an HRP substrate, was added to each well of the plate to induce a color reaction. The reaction was stopped by adding 50 μl of 5N H₂SO₄ solution. The OD₄₅₀ value was read on a plate reader (Molecular Devices). […] To determine the base sequence of polynucleotides encoding the polypeptides specifically binding to the VEGF obtained from single clones of the phages, a colony polymerase chain reaction (PCR) was performed using two different primer sets (primer set SEQ ID NOS: 47 and 48; and primer set SEQ ID NOS: 49 and 50). Each primer set was used according to the origin of the Dyax polypeptide library. […] The PCR was performed using a GeneAmp PCR system 9700 (Applied Biosystem), with the following PCR conditions: 30 cycles of 94° C. for 5 minutes, 94° C. for 1 minute, 60° C. for 1 minute, and 72° C. for 1.5 minutes; 72° C. for 10 minutes; and cooling to 4° C. Subsequently, polynucleotide fragments obtained by the PCR reaction were washed and then sequenced (Solgent).

Row | Binder | binding result
1 | B1 | binds
2 | B2 | binds
3 | B3 | binds
4 | B4 | binds
5 | B5 | binds
6 | B6 | binds
7 | B7 | binds
8 | B8 | binds
9 | B9 | binds
10 | B10 | binds
11 | B11 | binds
12 | B12 | binds
13 | B13 | binds
14 | B14 | binds
15 | B15 | binds
16 | B16 | binds
17 | B17 | binds
18 | B18 | binds
19 | B19 | binds
20 | B20 | binds
21 | B21 | binds
